Data on 72 molecules can be found in patent publication US20250011363A1, “OPTIMIZED SHORTENED PEPTIDE THAT BINDS TO ACETYLCHOLINE RECEPTOR, AND USE THEREOF” (SKINMED CO., LTD., priority 2021, published 2025).

In the assay the target is acetylcholine receptor. Kind of assay: SPR, AchR on chip, peptide 10 uM.

B1: 5mer-4 (peptide)
peptide: KRFLR
In turn, B1 came in with a Binding affinity (RU) of 58 RU.

B2: 5mer-541 (peptide)
peptide: KVFLK
Regarding B2, the Binding affinity (RU) was 80 RU.

B3: 5mer-10 (peptide)
peptide: RVQRR
B3 had a Binding affinity (RU) of 55 RU.

B4: 5mer-21 (peptide)
peptide: KWFTR
B4 registered a Binding affinity (RU) of 63 RU.

B5: 5mer-545 (peptide)
peptide: KGQYR
B5 yielded a Binding affinity (RU) of 80 RU.

B6: 5mer-310 (peptide)
peptide: KSRQR
For B6, the Binding affinity (RU) stood at 78 RU.

B7: 5mer-546 (peptide)
peptide: KVVLK
Turning to B7, the Binding affinity (RU) stood at 65 RU.

B8: 5mer-8 (peptide)
peptide: RQRSR
In turn, B8 came in with a Binding affinity (RU) of 51 RU.

B9: 5mer-303 (peptide)
peptide: KGRYR
B9 yielded a Binding affinity (RU) of 87 RU.

B10: 5mer-235 (peptide)
peptide: KGYSK
The molecule B10 registered a Binding affinity (RU) of 70 RU.

B11: 5mer-23 (peptide)
peptide: KWLYK
B11 gave a Binding affinity (RU) of 86 RU.

B12: 5mer-13 (peptide)
peptide: RLISK
On to B12, for which the Binding affinity (RU) came to 52 RU.

B13: 5mer-316 (peptide)
peptide: KQYLR
Consider B13, for which the Binding affinity (RU) amounted to 73 RU.

B14: 5mer-314 (peptide)
peptide: RWYTR
In turn, B14 gave a Binding affinity (RU) of 80 RU.

B15: 5mer-540 (peptide)
peptide: RQFYR
B15: the Binding affinity (RU) came out at 74 RU.

B16: 5mer-246 (peptide)
peptide: KSFTR
For the molecule B16, the Binding affinity (RU) came out at 60 RU.

B17: 5mer-20 (peptide)
peptide: RGRYK
Consider B17, for which the Binding affinity (RU) stood at 78 RU.

B18: 5mer-535 (peptide)
peptide: KSLLR
Take B18: the Binding affinity (RU) stood at 70 RU.

B19: 5mer-544 (peptide)
peptide: RLQLR
The molecule B19 registered a Binding affinity (RU) of 63 RU.

B20: 5mer-315 (peptide)
peptide: KLFSR
As for B20, the Binding affinity (RU) came out at 77 RU.

B21: 5mer-14 (peptide)
peptide: RWLCK
B21: the Binding affinity (RU) was 63 RU.

B22: 5mer-306 (peptide)
peptide: KSYYR
For B22, the Binding affinity (RU) came to 74 RU.

B23: 5mer-16 (peptide)
peptide: KLYTK
Molecule B23 displayed a Binding affinity (RU) of 66 RU.

B24: 5mer-308 (peptide)
peptide: RLRCR
The molecule B24 registered a Binding affinity (RU) of 84 RU.

B25: 5mer-236 (peptide)
peptide: KRRCK
For the molecule B25, the Binding affinity (RU) is 81 RU.

B26: 5mer-321 (peptide)
peptide: RSLSR
The molecule B26 yielded a Binding affinity (RU) of 68 RU.

B27: 5mer-322 (peptide)
peptide: RRQSR
B27 had a Binding affinity (RU) of 84 RU.

B28: 5mer-313 (peptide)
peptide: RSQLK
In the case of B28, the Binding affinity (RU) was found to be 75 RU.

B29: 5mer-320 (peptide)
peptide: RVVQR
In turn, B29 had a Binding affinity (RU) of 75 RU.

B30: 5mer-247 (peptide)
peptide: RWYCR
As to B30, the Binding affinity (RU) was 80 RU.

B31: 5mer-538 (peptide)
peptide: KQQQR
As for B31, the Binding affinity (RU) turned out to be 72 RU.

B32: 5mer-239 (peptide)
peptide: KRLYR
For the molecule B32, the Binding affinity (RU) amounted to 61 RU.

B33: 5mer-240 (peptide)
peptide: KWRYR
The molecule B33 yielded a Binding affinity (RU) of 51 RU.

B34: 5mer-18 (peptide)
peptide: RQLRR
B34 showed a Binding affinity (RU) of 69 RU.

B35: 5mer-11 (peptide)
peptide: KQRLR
Regarding B35, the Binding affinity (RU) amounted to 84 RU.

B36: 5mer-9 (peptide)
peptide: RGVQR
In the case of B36, the Binding affinity (RU) was 77 RU.

B37: 5mer-309 (peptide)
peptide: KVQYR
The molecule B37 gave a Binding affinity (RU) of 70 RU.

B38: 5mer-15 (peptide)
peptide: KGVCK
On to B38, for which the Binding affinity (RU) worked out at 75 RU.

B39: 5mer-3 (peptide)
peptide: KRVLK
With B39, the Binding affinity (RU) came out at 66 RU.

B40: 5mer-248 (peptide)
peptide: RWYLK
On to B40, for which the Binding affinity (RU) was 63 RU.

B41: 5mer-7 (peptide)
peptide: RQLTK
In turn, B41 showed a Binding affinity (RU) of 54 RU.

B42: 5mer-19 (peptide)
peptide: KRFQR
For the molecule B42, the Binding affinity (RU) was 72 RU.

B43: 5mer-318 (peptide)
peptide: KRVCK
As to B43, the Binding affinity (RU) was 64 RU.

B44: 5mer-302 (peptide)
peptide: RRILK
Molecule B44 came in with a Binding affinity (RU) of 70 RU.

B45: 5mer-22 (peptide)
peptide: RQQLK
Molecule B45 displayed a Binding affinity (RU) of 66 RU.

B46: 5mer-323 (peptide)
peptide: KWYYR
Turning to B46, the Binding affinity (RU) came to 77 RU.

B47: 5mer-12 (peptide)
peptide: RVFLR
In turn, B47 displayed a Binding affinity (RU) of 70 RU.

B48: 5mer-548 (peptide)
peptide: KWLCK
The molecule B48 registered a Binding affinity (RU) of 60 RU.

B49: 5mer-319 (peptide)
peptide: RVQTR
In turn, B49 showed a Binding affinity (RU) of 74 RU.

B50: 5mer-24 (peptide)
peptide: KSQCR
Consider B50, for which the Binding affinity (RU) was 67 RU.

B51: 5mer-241 (peptide)
peptide: KVRCR
B51 showed a Binding affinity (RU) of 51 RU.

B52: 5mer-243 (peptide)
peptide: KLLSK
As for B52, the Binding affinity (RU) stood at 51 RU.

B53: 5mer-245 (peptide)
peptide: RQRSK
For B53, the Binding affinity (RU) amounted to 62 RU.

B54: 5mer-547 (peptide)
peptide: KQVTK
As for B54, the Binding affinity (RU) amounted to 77 RU.

B55: 5mer-6 (peptide)
peptide: RWQQK
B55 showed a Binding affinity (RU) of 61 RU.

B56: 5mer-238 (peptide)
peptide: KQVLK
B56 gave a Binding affinity (RU) of 58 RU.

B57: 5mer-5 (peptide)
peptide: KLFLR
Take B57: the Binding affinity (RU) worked out at 54 RU.

B58: 5mer-17 (peptide)
peptide: KRIYK
B58: the Binding affinity (RU) worked out at 70 RU.

B59: 5mer-304 (peptide)
peptide: RSVRK
B59: the Binding affinity (RU) was 76 RU.

B60: 5mer-542 (peptide)
peptide: KRYTR
B60 yielded a Binding affinity (RU) of 85 RU.

B61: 5mer-2 (peptide)
peptide: KRISR
In turn, B61 returned a Binding affinity (RU) of 80 RU.

B62: 5mer-244 (peptide)
peptide: KSVSK
Turning to B62, the Binding affinity (RU) worked out at 78 RU.

B63: 5mer-242 (peptide)
peptide: RGYTK
B63 gave a Binding affinity (RU) of 64 RU.

B64: 5mer-537 (peptide)
peptide: RLRLR
As to B64, the Binding affinity (RU) worked out at 59 RU.

B65: 5mer-307 (peptide)
peptide: KQRCK
With B65, the Binding affinity (RU) is 82 RU.

B66: 5mer-536 (peptide)
peptide: RLITK
As to B66, the Binding affinity (RU) was found to be 78 RU.

B67: 5mer-312 (peptide)
peptide: KRYCR
As for B67, the Binding affinity (RU) is 81 RU.

B68: 5mer-305 (peptide)
peptide: KRICK
B68 returned a Binding affinity (RU) of 72 RU.

B69: 5mer-539 (peptide)
peptide: RVVTR
In turn, B69 showed a Binding affinity (RU) of 70 RU.

B70: 5mer-317 (peptide)
peptide: RRVQR
Consider B70, for which the Binding affinity (RU) is 86 RU.

B71: 5mer-237 (peptide)
peptide: RGLRK
As to B71, the Binding affinity (RU) was 77 RU.

B72: 5mer-543 (peptide)
peptide: RLRLK
For B72, the Binding affinity (RU) is 65 RU.
